In patent publication US20200190186A1:
pEC50: −log10 of the molar value.

What was measured:
[1] = biological target: mouse TIM3 (mouse) (UniProt Q8VIM0); assay: binding to activated mouse T cells; method not stated
[2] = biological target: mouse TIM3 (mouse) (UniProt Q8VIM0); assay: binding to activated mouse T cells, compared with TIM3.18 on human TIM-3

Sequence of mouse TIM3 (mouse) (Q8VIM0 20-281): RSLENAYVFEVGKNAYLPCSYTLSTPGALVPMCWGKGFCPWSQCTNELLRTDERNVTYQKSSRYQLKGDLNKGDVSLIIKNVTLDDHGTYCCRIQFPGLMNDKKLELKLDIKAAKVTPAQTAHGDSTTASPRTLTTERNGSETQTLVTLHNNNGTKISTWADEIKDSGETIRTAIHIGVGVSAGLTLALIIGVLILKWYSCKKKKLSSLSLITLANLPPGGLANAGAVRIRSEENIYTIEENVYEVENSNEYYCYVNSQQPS

pEC50 [1]: 8.77
fold weaker EC50 than TIM3.18 on human TIM-3 [2]: 17 fold
Substance: RMT3-23, rat anti-mouse TIM-3 commercial antibody (Bio-X-Cell)
